The record followed here is patent publication US20200369770A1 (NANJING LEGEND BIOTECH, published 2020).

In experiment [1] the target is T1, human TIGIT expressed on CHO cells (human, UniProt Q495A1 22-244).
T1 construct: also called CHO cells expressing human TIGIT
T1 sequence: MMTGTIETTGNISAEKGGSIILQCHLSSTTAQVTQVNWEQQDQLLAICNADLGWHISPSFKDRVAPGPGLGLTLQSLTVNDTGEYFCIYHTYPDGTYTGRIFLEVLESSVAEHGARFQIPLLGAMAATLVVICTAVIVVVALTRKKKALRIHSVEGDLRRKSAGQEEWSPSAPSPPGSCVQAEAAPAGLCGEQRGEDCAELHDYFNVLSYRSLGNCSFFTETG
As to the kind of experiment: FACS on CHO cells expressing human TIGIT; column TIGIT / Cell binding (EC50 nM). As for the experimental part: The mixture was equilibrated for 30 minutes at room temperature, and washed three times with FACS buffer (PBS containing 1% BSA). FITC-conjugated anti-human Fc antibody (Jackson ImmunoResearch) used as secondary antibody was then added and the mixture was incubated for 15 minutes at room temperature. Cells were washed again with FACS buffer and analyzed by flow cytometry. Data were analyzed with PRISM™ (GraphPad Software, San Diego, Calif.) using non-linear regression, and EC₅₀ values were calculated.

For experiment [2], the target named is T2, His-tagged TIGIT protein (Homo sapiens (Human), UniProt Q495A1 22-141).
T2 construct: SPR analyte; not shown: His tag
T2 sequence: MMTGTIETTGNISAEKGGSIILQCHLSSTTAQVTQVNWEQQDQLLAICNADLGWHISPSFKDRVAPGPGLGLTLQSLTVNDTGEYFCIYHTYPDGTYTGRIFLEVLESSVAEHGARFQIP
Briefly: SPR (BIACORE T200), His-tagged TIGIT as analyte over captured binder; column TIGIT / Affinity (nM). From the text: Binding curves at different analyte concentrations were used to calculate the kinetic parameters kₒₙ, koff and Kd (FIGS. 13A-13K).
A general note: Surface plasmon resonance follows binding to a sensor surface in real time, without labels.

Experiment [3] concerns the target T1, human TIGIT expressed on CHO cells. Briefly: FACS competition on CHO cells expressing human TIGIT, blocked ligand biotinylated hCD155 Fc; column TIGIT / Ligand competition (IC50 nM). As for the experimental part: (§1) Each mixture was equilibrated for 30 minutes at room temperature, and washed three times with FACS buffer (PBS containing 1% BSA). PE/Cy5 Streptavidin secondary antibody was then added to each mixture and incubated for 15 minutes at room temperature. Subsequently, the cells were washed again with FACS buffer and analyzed by flow cytometry. Data was analyzed with PRISM™ (GraphPad Software, San Diego, Calif.) using non-linear regression, and IC₅₀ values were calculated.

Experiment [4] deals with T3, human LAG-3 expressed on CHO cells (human, UniProt P18627 29-525).
T3 construct: also called CHO cells expressing human LAG-3
T3 sequence: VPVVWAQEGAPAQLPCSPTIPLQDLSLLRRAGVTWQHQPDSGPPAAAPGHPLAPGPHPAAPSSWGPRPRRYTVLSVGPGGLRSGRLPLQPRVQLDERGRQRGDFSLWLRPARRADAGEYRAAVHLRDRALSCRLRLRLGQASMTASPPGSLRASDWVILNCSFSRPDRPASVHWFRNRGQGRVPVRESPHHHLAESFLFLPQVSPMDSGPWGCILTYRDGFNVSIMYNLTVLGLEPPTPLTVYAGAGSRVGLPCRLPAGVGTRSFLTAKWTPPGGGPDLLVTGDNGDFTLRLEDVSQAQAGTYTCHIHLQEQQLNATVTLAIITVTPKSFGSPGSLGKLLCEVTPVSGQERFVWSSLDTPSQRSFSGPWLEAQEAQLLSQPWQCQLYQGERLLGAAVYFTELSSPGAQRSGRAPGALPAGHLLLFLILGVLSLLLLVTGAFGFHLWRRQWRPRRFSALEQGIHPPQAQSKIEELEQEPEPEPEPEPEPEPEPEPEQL
As to the kind of experiment: FACS on CHO cells expressing human LAG-3; column LAG-3 / Cell binding (EC50 nM). On the procedure: The mixture was equilibrated for 30 minutes at room temperature, and washed three times with FACS buffer (PBS containing 1% BSA). FITC-conjugated anti-human Fc antibody (Jackson ImmunoResearch) used as secondary antibody was then added and incubated for 15 minutes at room temperature. Cells were washed again with FACS buffer and analyzed by flow cytometry. Data was analyzed with PRISM™ (GraphPad Software, San Diego, Calif.) using non-linear regression, and EC₅₀ values were calculated.

Experiment [5] concerns the target T4, His-tagged LAG-3 protein (Homo sapiens (Human), UniProt P18627 29-450, limits assumed).
T4 construct: SPR analyte; not shown: His tag
T4 sequence: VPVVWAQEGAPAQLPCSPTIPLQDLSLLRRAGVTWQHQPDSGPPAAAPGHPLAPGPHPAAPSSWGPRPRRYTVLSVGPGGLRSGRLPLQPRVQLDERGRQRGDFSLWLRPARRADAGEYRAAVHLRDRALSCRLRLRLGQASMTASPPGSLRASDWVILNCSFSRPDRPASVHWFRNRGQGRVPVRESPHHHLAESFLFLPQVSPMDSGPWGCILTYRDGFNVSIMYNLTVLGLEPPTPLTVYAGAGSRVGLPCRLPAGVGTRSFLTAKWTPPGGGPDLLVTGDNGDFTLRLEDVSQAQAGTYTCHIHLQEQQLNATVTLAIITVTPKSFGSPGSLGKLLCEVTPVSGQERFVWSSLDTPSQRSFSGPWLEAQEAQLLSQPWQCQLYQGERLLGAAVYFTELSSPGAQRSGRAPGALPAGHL
As to the kind of experiment: SPR (BIACORE T200), His-tagged LAG-3 as analyte over immobilized binder; column LAG-3 / Affinity (nM). From the text:
Binding curves at different analyte concentrations were used to calculate the kinetic parameters kₒₙ, koff and Kd (FIGS. 14A-14K).

For experiment [6], the target named is T5, LAG-3 Fc fusion protein having a biotin-label (Homo sapiens (Human), UniProt P18627 29-450, limits assumed, biotin label (site not stated)).
T5 construct: not shown: Fc
T5 sequence: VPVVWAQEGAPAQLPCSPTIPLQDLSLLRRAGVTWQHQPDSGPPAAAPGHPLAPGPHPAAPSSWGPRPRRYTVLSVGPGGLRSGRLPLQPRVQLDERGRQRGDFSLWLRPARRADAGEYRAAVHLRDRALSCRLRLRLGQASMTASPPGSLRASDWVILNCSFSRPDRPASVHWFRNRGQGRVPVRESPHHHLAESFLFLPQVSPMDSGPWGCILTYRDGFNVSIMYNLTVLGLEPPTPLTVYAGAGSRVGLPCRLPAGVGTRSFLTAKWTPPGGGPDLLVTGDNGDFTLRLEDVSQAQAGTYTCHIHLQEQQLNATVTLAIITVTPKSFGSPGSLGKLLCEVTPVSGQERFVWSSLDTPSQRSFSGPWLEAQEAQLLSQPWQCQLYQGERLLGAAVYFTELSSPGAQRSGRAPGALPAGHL
Briefly: FACS competition, binding of biotinylated LAG-3 Fc to MHC class II on A375 cells blocked; column LAG-3 / Ligand competition (IC50 nM). As for the experimental part:
as §1

B1: AS19584VH28 HCAb (antibody, human IgG4 S228P, V domains shown)
VH: EVQLVESGGGLVQPGGSLRLSCAASGYKYGVYSMGWFRQAPGKGLEGVSAICSGGRTTYSDSVKGRFTISRDNSNQILYLQMNSLRAEDTAVYYCAARPLWTGDCDLSSSWYKTWGQGTLVTVSS
notes: positive control for TIGIT; also called anti-TIGIT AS19584VH28 HCAb
One may read the EC50 as the midpoint of the concentration-response curve. Read a low EC50 as higher potency in that assay. In general, Kd refers to the free concentration of one partner at which half of the binding sites on the other are occupied at equilibrium, for simple one-to-one binding. What is called IC50 is the concentration that gives 50% inhibition. Take B1: the EC50 in experiment [1] is 4.99 nM. Binding in experiment [2] was characterised by a dissociation constant (Kd) of 0.44 nM. Moreover, in experiment [3], the IC50 turned out to be 8.61 nM.

B2: VHH2 HCAb (antibody, human IgG4 S228P, V domains shown)
VH: EVQLVESGGGLVQPGGSLRLSCAASGYTVSSYCMGWFRQAPGKGREGVSAIDSDGSVSYADSVKGRFTISKDNSKNTLYLQMNSLRAEDTAVYFCAADLCWVDQDQGEYNTWGQGTLVTVSS
notes: positive control for LAG-3; also called anti-LAG-3 VHH2 HCAb
Molecule B2 gave an EC50 in experiment [4] of 1.82 nM. The same molecule gave a Kd in experiment [5] of 0.45 nM. Besides, the IC50 in experiment [6] was found to be 11 nM.
